Values belong to the binder of their own block, whether it stands above or below them. Non-standard residues stand in square brackets, D forms with d. pT = C[C@@H](OP(=O)(O)O)[C@H](N)C(=O)O; pS = N[C@@H](COP(=O)(O)O)C(=O)O
B2: Plx1-PBD WT (polo-box domain of Plx1) (domain or fragment, Xenopus laevis, UniProt P70032 362-598, looked up)
chain: EPADCYLSEMLQQLTCLNAVKPSERALIRQEEAEDPASIPIFWISKWVDYSDKYGLGYQLCDNSVGVLFNDSTRLIMYNDGDSLQYIERNNTESYLNVRSYPTTLTKKITLLKYFRNYMSEHLLKAGANTTPREGDELARLPFLRTWFRTRSAIILHLSNGTVQINFFQDHTKIILCPLMAAVSYIDEKREFRTYKLSLIQEFGCCKELASRLRYARTMVEKLQSSKSAVAHVKASA
notes: Plx1, Xenopus laevis, polo-box domain, amino acids 362-598; 3xFlag is PreScission-cleavable, His6 TEV-cleavable; cleavage is not reported; also called WT Plx1-PBD; source: E. coli BL21-CodonPlus (DE3), purified (Ni-NTA agarose)
B5: MBP-fused Apc1-loop^500 WT fragment (domain or fragment, Xenopus tropicalis, UniProt Q08D52 515-584, looked up)
chain: GLAAPSLGMSNPMPRPSTPLESISTPAKPLNKHLAPMDEAGMLSPVPELRDSTRLHESTYLDDCTFHQFG
notes: Apc1 (APC/C subunit 1), Xenopus tropicalis, loop^500, residues 515-584; Added unphosphorylated; becomes phosphorylated at CDK sites T532, T539 and S558 when incubated in anaphase egg extracts; MBP is PreScission-cleavable and His6 TEV-cleavable; also called MBP-Apc1-loop^500; CDK^- Apc1-loop^500; source: recombinant, purified as described previously (Fujimitsu & Yamano, 2020); not shown: MBP, …

Key:
Details in all cases: both partners purified
[1] = biological target: B2; experiment: pull-down; purified proteins only: MBP-fused Apc1-loop^500 incubated with or without purified Cdk2/cyclin A (30°C, 2 h, 1 mM ATP), bound to amylose beads, incubated with Plx1-PBD at 4°C (on ice) for 10 min in XB^CSF with 0.01% NP-40 without EGTA; Coomassie staining
[2] = biological target: B5; experiment: pull-down; MBP-fused Apc1-loop^500 on amylose beads incubated in anaphase extracts at 23°C for 1 h, then purified Plx1-PBD (10 µg or indicated amounts) added to the extract for 15 min; bound proteins by SDS-PAGE and Coomassie staining
[3] = biological target: B2; experiment: pull-down; dissociation assay: Plx1-PBD/MBP-Apc1-loop^500 complexes formed in anaphase extracts, isolated on amylose beads and incubated with (78 nM) or without purified PP2A-B56γ at 23°C for 30 or 60 min; PBD left on the beads by Coomassie staining
[4] = biological target: B2; experiment: pull-down; MBP-fused Apc1-loop^500 on amylose beads incubated in anaphase extracts at 23°C for 1 h, then purified Plx1-PBD (10 µg or indicated amounts) added to the extract for 15 min; bound proteins by SDS-PAGE and Coomassie staining

Binder: B2
stoichiometry N [2]: > 1 Plx1-PBD per Apc1-loop^500

B3: MBP-fused Apc1-loop^500 T532A phosphorylated by Cdk2/cyclin A (domain or fragment, Xenopus tropicalis, UniProt Q08D52 515-584, looked up)
chain: GLAAPSLGMSNPMPRPSAPLESISTPAKPLNKHLAPMDEAGMLSPVPELRDSTRLHESTYLDDCTFHQFG
modifications: also: MBP fusion, phosphorylated in vitro by Cdk2/cyclin A, sites not given here
notes: Apc1, Xenopus tropicalis, loop^500, residues 515-584; source: recombinant, purified, then phosphorylated in vitro with purified Cdk2/cyclin A; not shown: MBP, N-terminal, kept
binding result [1]: binds

Binder: B5
binding result [4]: binds

Next, values leading:

binding result [1]: binds
B1: MBP-fused Apc1-loop^500 WT phosphorylated by Cdk2/cyclin A (domain or fragment, Xenopus tropicalis, UniProt Q08D52 515-584, looked up)
chain: GLAAPSLGMSNPMPRPSTPLESIS[pT]PAKPLNKHLAPMDEAGML[pS]PVPELRDSTRLHESTYLDDCTFHQFG
modifications: not fully specified (residue 18, N-terminus); also: MBP fusion, pT532 only in upper of two bands (partial), phosphorylated in vitro by Cdk2/cyclin A
notes: Apc1, Xenopus tropicalis, loop^500, residues 515-584; After phosphorylation the protein runs as two bands; only the upper one carries pT532; also called Apc1-loop^500 (CDK^+); phosphorylated MBP-Apc1-loop^500; source: recombinant, purified, then phosphorylated in vitro with purified Cdk2/cyclin A at 30°C for 2 h; not shown: MBP, N-terminal, kept

binding result [3]: binds
B4: MBP-fused Apc1-loop^500 E562A (domain or fragment, Xenopus tropicalis, UniProt Q08D52 515-584, looked up)
chain: GLAAPSLGMSNPMPRPSTPLESISTPAKPLNKHLAPMDEAGMLSPVPALRDSTRLHESTYLDDCTFHQFG
notes: Apc1, Xenopus tropicalis, loop^500, residues 515-584; source: recombinant, purified as described previously (Fujimitsu & Yamano, 2020); not shown: MBP, N-terminal, kept
